# Data reported in patent publication US20120100141A1 (GlaxoSmithKline, published 2012).
# B1: 2xGLP-1 (7-37) A8G DOM7h-14 dAb fusion (DAT0114) (other)
# chain: HGEGTFTSDVSSYLEGQAAKEFIAWLVKGRHGEGTFTSDVSSYLEGQAAKEFIAWLVKGRDIQMTQSPSSLSASVGDRVTITCRASQWIGSQLSWYQQKPGKAPKLLIMWRSSLQSGVPSRFSGSGSGTDFTLTISSLQPEDFATYYCAQGAALPRTFGQGTKVEIKR
# notes: expressed in HEK293E cells, purified on protein L; also called 2xGLP-1 (7-37) A8G DOM7h-14 fusion
# B2: Cynomolgus monkey serum albumin (CSA) (other, UniProt A2V9Z4 25-608, looked up)
# chain: DTHKSEVAHRFKDLGEEHFKGLVLVAFSQYLQQCPFEEHVKLVNEVTEFAKTCVADESAENCDKSLHTLFGDKLCTVATLRETYGEMADCCAKQEPERNECFLQHKDDNPNLPPLVRPEVDVMCTAFHDNEATFLKKYLYEVARRHPYFYAPELLFFAARYKAAFAECCQAADKAACLLPKLDELRDEGKASSAKQRLKCASLQKFGDRAFKAWAVARLSQKFPKAEFAEVSKLVTDLTKVHTECCHGDLLECADDRADLAKYMCENQDSISSKLKECCDKPLLEKSHCLAEVENDEMPADLPSLAADYVESKDVCKNYAEAKDVFLGMFLYEYARRHPDYSVMLLLRLAKAYEATLEKCCAAADPHECYAKVFDEFQPLVEEPQNLVKQNCELFEQLGEYKFQNALLVRYTKKVPQVSTPTLVEVSRNLGKVGAKCCKLPEAKRMPCAEDYLSVVLNRLCVLHEKTPVSEKVTKCCTESLVNRRPCFSALELDEAYVPKAFNAETFTFHADMCTLSEKEKQVKKQTALVELVKHKPKATKEQLKGVMDNFAAFVEKCCKADDKEACFAEEGPKFVAASQAALA
# notes: CSA is not spelled out where it is used; also called cynomolgus serum albumin; cyno serum albumin
# B3: Human GLP-1 receptor (receptor, UniProt P43220 24-463, looked up)
# chain: RPQGATVSLWETVQKWREYRRQCQRSLTEDPPPATDLFCNRTFDEYACWPDGEPGSFVNVSCPWYLPWASSVPQGHVYRFCTAEGLWLQKDNSSLPWRDLSECEESKRGERSSPEEQLLFLYIIYTVGYALSFSALVIASAILLGFRHLHCTRNYIHLNLFASFILRALSVFIKDAALKWMYSTAAQQHQWDGLLSYQDSLSCRLVFLLMQYCVAANYYWLLVEGVYLYTLLAFSVLSEQWIFRLYVSIGWGVPLLFVVPWGIVKYLYEDEGCWTRNSNMNYWLIIRLPILFAIGVNFLIFVRVICIVVSKLKANLMCKTDIKCRLAKSTLTLIPLLGTHEVIFAFVMDEHARGTLRFIKLFTELSFTSFQGLMVAILYCFVNNEVQLEFRKSWERWRLEHLHIQRDSSMKPLKCPTSSLSSGATAGSSMYTATCQASCS
# notes: whole, on cells
# B4: Mouse GLP-1 receptor (receptor, UniProt O35659 22-463, looked up)
# chain: GPRPQGTTVSLSETVQKWREYRRQCQRFLTEAPLLATGLFCNRTFDDYACWPDGPPGSFVNVSCPWYLPWASSVLQGHVYRFCTAEGLWLHKDNSSLPWRDLSECEESKRGERNFPEEQLLSLYIIYTVGYALSFSALVIASAILVGFRHLHCTRNYIHLNLFASFILRALSVFIKDAALKWMYSTAAQQHQWDGLLSYQDSLGCRLVFLLMQYCVAANYYWLLVEGVYLYTLLAFSVFSEQRIFKLYLSIGWGVPLLFVIPWGIVKYLYEDEGCWTRNSNMNYWLIIRLPILFAIGVNFLIFIRVICIVVSKLKANLMCKTDIKCRLAKSTLTLIPLLGTHEVIFAFVMDEHARGTLRFIKLFTELSFTSFQGLMVAILYCFVNNEVQMEFRKCWERWRLEHLNIQRDCSMKPLKCPTSSVSSGATVGSSVYAATCQSSYS
# notes: whole, on cells
# B5: Rat GLP-1 receptor (receptor, UniProt P32301 22-463, looked up)
# chain: GPRPQGATVSLSETVQKWREYRHQCQRFLTEAPLLATGLFCNRTFDDYACWPDGPPGSFVNVSCPWYLPWASSVLQGHVYRFCTAEGIWLHKDNSSLPWRDLSECEESKQGERNSPEEQLLSLYIIYTVGYALSFSALVIASAILVSFRHLHCTRNYIHLNLFASFILRALSVFIKDAALKWMYSTAAQQHQWDGLLSYQDSLGCRLVFLLMQYCVAANYYWLLVEGVYLYTLLAFSVFSEQRIFKLYLSIGWGVPLLFVIPWGIVKYLYEDEGCWTRNSNMNYWLIIRLPILFAIGVNFLVFIRVICIVIAKLKANLMCKTDIKCRLAKSTLTLIPLLGTHEVIFAFVMDEHARGTLRFVKLFTELSFTSFQGFMVAVLYCFVNNEVQMEFRKSWERWRLERLNIQRDSSMKPLKCPTSSVSSGATVGSSVYAATCQNSCS
# notes: whole, on cells
# B6: Rat serum albumin (RSA) (other, UniProt P02770 25-608, looked up)
# chain: EAHKSEIAHRFKDLGEQHFKGLVLIAFSQYLQKCPYEEHIKLVQEVTDFAKTCVADENAENCDKSIHTLFGDKLCAIPKLRDNYGELADCCAKQEPERNECFLQHKDDNPNLPPFQRPEAEAMCTSFQENPTSFLGHYLHEVARRHPYFYAPELLYYAEKYNEVLTQCCTESDKAACLTPKLDAVKEKALVAAVRQRMKCSSMQRFGERAFKAWAVARMSQRFPNAEFAEITKLATDVTKINKECCHGDLLECADDRAELAKYMCENQATISSKLQACCDKPVLQKSQCLAEIEHDNIPADLPSIAADFVEDKEVCKNYAEAKDVFLGTFLYEYSRRHPDYSVSLLLRLAKKYEATLEKCCAEGDPPACYGTVLAEFQPLVEEPKNLVKTNCELYEKLGEYGFQNAVLVRYTQKAPQVSTPTLVEAARNLGRVGTKCCTLPEAQRLPCVEDYLSAILNRLCVLHEKTPVSEKVTKCCSGSLVERRPCFSALTVDETYVPKEFKAETFTFHSDICTLPDKEKQIKKQTALAELVKHKPKATEDQLKTVMGDFAQFVDKCCKAADKDNCFATEGPNLVARSKEALA
# B7: GLP-1 (7-37) A8G, helical linker, DOM7h-14 dAb fusion (DAT0120) (other)
# chain: HGEGTFTSDVSSYLEGQAAKEFIAWLVKGRGKEAAAKEAAAKEAAAKELAAKEAAAKEAAAKEAAAKELAADIQMTQSPSSLSASVGDRVTITCRASQWIGSQLSWYQQKPGKAPKLLIMWRSSLQSGVPSRFSGSGSGTDFTLTISSLQPEDFATYYCAQGAALPRTFGQGTKVEIKR
# notes: Single-chain genetic fusion of GLP-1 (7-37) A8G, helical linker and DOM7h-14; also called GLP-1 (7-37) A8G, helical linker, DOM7h-14 fusion; GLP-1 A8G, helical linker, DOM7h-14 fusion
# Experiments:
# [1] = target: Mouse serum albumin (MSA) (mouse, UniProt P07724 25-608); assay: SPR (Biacore), albumin on CM5 chip, fusion in flow
# Procedure: (§1) The analysis was performed using a CM5 Biacore chip (carboxymethylated dextran matrix) that was coated with serum albumin. About 1000 resonance units (RUs) of each serum albumin to be tested (human, rat and mouse serum albumin) was immobilised in acetate buffer pH 5.5. […] Each fusion molecule tested was expressed in mammalian tissue culture as described in the example above.
# (§2) Affinity (KD) was calculated from the BIACORE traces by fitting on-rate and off-rate curves to traces generated by concentrations of dAb in the region of the KD.
# Rat serum albumin (RSA) = target: B6; assay: SPR (Biacore), albumin on CM5 chip, fusion in flow
# Procedure: as §1, §2
# [2] = target: Human serum albumin (HSA) (human, UniProt P02768 25-609); assay: SPR (Biacore), albumin on CM5 chip, fusion in flow
# Procedure: as §1, §2
# [3] = target: T1, Exendin 4 (G4S linker)3 DOM7h-14 dAb fusion (DAT0115); assay: SPR (Biacore), biotinylated albumin on SA chip, fusion in flow
# T1 construct: also called Exendin 4 (G4S)3 DOM7h-14 fusion
# Procedure: The analysis was performed using a streptavidin chip (SA) coated with biotinylated serum albumin. 200-1000 resonance units (RUs) of each serum albumin was immobilised on the chip. Flow cell 1 was uncoated, flow cell 2 was coated with HSA, flow cell 3 was coated with RSA and flow cell 4 was coated with CSA.
# as §2
# [4] = target: T2, Exendin 4, (G4S)3, linker DOM7h-14-10 fusion (DMS7139); assay: SPR (Biacore), albumin on CM5 chip, fusion in flow
# T2 construct: expressed in E. coli with a cleaved OmpT AWA leader; also called DSM7139
# Procedure: (§3) The analysis was performed using two CM5 chips (carboxymethylated dextran matrix) that were coated with serum albumin. ˜500 resonance units (RUs) of each serum albumin was immobilised in acetate buffer pH 4.5. The first chip had flow cell 1 uncoated and blocked and flow cell 2 was coated with MSA (560Rus). The second chip had flow cell 1 uncoated and blocked, flow cell 2 was coated with HSA, flow cell 3 was coated with CSA and flow cell 4 was coated with RSA. For all serum albumins, the aim was to coat in the region of 350 RUs of protein onto the chip.
# as §2
# [5] = target: T3, Exendin 4, (G4S)3, linker DOM7h-11-15 fusion (DMS7143); assay: SPR (Biacore), albumin on CM5 chip, fusion in flow
# T3 construct: expressed in E. coli with a cleaved OmpT AWA leader
# Procedure: as §3, §2
# [6] = target: T2, Exendin 4, (G4S)3, linker DOM7h-14-10 …; assay: melanophore functional GLP-1R bioassay
# [7] = target: T4, Exendin 4-DOM7h-14 dAb fusion (DAT0116); assay: 6CRE-luciferase reporter in CHO cells with human GLP-1R (called GLP-1R binding assay)
# T4 construct: also called Exendin 4 DOM7h-14 fusion
# [8] = target: T5, Exendin 4, helical linker, DOM7h-14 dAb fusion (DAT0117); assay: as above
# T5 construct: also called Exendin 4, helical linker, DOM7h-14 fusion
# [9] = target: T1, Exendin 4 (G4S linker)3 DOM7h-14 dAb …; assay: as above
# Chain of Mouse serum albumin (MSA) (P07724 25-608 limits assumed): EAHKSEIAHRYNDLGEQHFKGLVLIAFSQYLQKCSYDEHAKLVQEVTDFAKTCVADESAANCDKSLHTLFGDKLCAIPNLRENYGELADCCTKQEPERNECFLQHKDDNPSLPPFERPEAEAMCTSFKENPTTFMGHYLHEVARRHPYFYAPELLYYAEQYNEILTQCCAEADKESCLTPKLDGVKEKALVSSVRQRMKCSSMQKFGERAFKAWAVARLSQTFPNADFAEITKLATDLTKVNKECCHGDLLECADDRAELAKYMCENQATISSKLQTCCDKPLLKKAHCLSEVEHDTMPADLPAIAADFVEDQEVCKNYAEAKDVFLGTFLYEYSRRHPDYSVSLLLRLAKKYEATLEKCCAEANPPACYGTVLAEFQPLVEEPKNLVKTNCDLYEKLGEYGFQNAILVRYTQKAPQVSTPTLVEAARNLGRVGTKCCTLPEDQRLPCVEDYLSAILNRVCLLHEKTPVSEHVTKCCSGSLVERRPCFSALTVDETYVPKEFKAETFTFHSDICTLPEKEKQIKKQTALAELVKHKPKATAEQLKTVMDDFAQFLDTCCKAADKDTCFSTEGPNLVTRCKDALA
binder,measurement,setting,value
B1,Kd,[1],130 nM
same,Kd,Rat serum albumin (RSA),700 nM
same,Kd,[2],150 nM
B2,Kd,[3],2000 nM
same,Kd,[4],42.3 nM
same,Kd,[5],38.9 nM
B3,binding result,[6],binds
same,binding result,[7],binds
same,binding result,[8],binds
same,binding result,[9],binds
B4,binding result,[6],binds
B5,binding result,[6],binds
B6,Kd,[3],2000 nM
same,Kd,[4],31.5 nM
same,Kd,[5],219 nM
B7,Kd,[1],110 nM
same,Kd,Rat serum albumin (RSA),800 nM
same,Kd,[2],110 nM
